± gives the standard deviation of the averaged measurements.

To fix the notation:
B1: library; a variant is named by its letters at N, in order (parent)
chain: GCUGUCACCGAGAAACUGUGAAGUAUAUCUUAAACCUGGGCACUUAAAAGAUAUAUGGAGUUAGUAGUGCAACCUGCUCGGUCUGAUGAGUCCNNNNNNGGACGAAACAGC

Variants of B1 are the subject of data set [1]. Nature of the data set: normalized RNA/DNA level without ligand (relative to sTRSVctl = 100) (log10 (% of sTRSVctl)); HEK293T; ligand: cyclic di-GMP (c-di-GMP-II aptamer); higher = less ribozyme self-cleavage, higher mRNA level. As to conditions: reporter: mCherry (pCS4076), ligand present: no. In short, it runs like this: (§1)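 RNA level was computed as RNA reads over DNA reads divided by a spiked-in non-cleaving sequence or by the top sequences, then scaled and log-transformed. Scaling was ×100 with log10, the top group was 25 sequences, and the threshold was ≥100 DNA reads. The reads came from HEK293T cells transfected at 4 µg per 6-well well with ribozyme switch library plasmids (mCherry, or eGFP in some ligand experiments). Total RNA was extracted with EDTA 72 h after transfection, with any ligand added 1 h before it.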

Data set [2] covers variants of B1. Nature of the data set: normalized RNA/DNA level with ligand (relative to sTRSVctl = 100) (log10 (% of sTRSVctl)); HEK293T; ligand: cyclic di-GMP (c-di-GMP-II aptamer); ligand concentration (+) RNA-Seq: 1 mM; higher = less ribozyme self-cleavage, higher mRNA level. Conditions: reporter: mCherry (pCS4076), ligand present: yes. In short, it runs like this:
as §1

Consider GCUGUCACCGAGAAACUGUGAAGUAUAUCUUAAACCUGGGCACUUAAAAGAUAUAUGGAGUUAGUAGUGCAACCUGCUCGGUCUGAUGAGUCCGAGUGAGGACGAAACAGC [GAGUGA], for which, in data set [1], the “normalized RNA/DNA level without ligand (log10)” value is 1.71 ± 0.033. Further, in data set [2], the “normalized RNA/DNA level with ligand (log10)” value was found to be 1.79 ± 0.14.
For GCUGUCACCGAGAAACUGUGAAGUAUAUCUUAAACCUGGGCACUUAAAAGAUAUAUGGAGUUAGUAGUGCAACCUGCUCGGUCUGAUGAGUCCAAGUCCGGACGAAACAGC [AAGUCC], the “normalized RNA/DNA level without ligand (log10)” value in data set [1] was determined as 1.76 ± 0.051. The “normalized RNA/DNA level with ligand (log10)” value in data set [2] is 1.84 ± 0.085.
As to GCUGUCACCGAGAAACUGUGAAGUAUAUCUUAAACCUGGGCACUUAAAAGAUAUAUGGAGUUAGUAGUGCAACCUGCUCGGUCUGAUGAGUCCAAGUCAGGACGAAACAGC [AAGUCA], the “normalized RNA/DNA level without ligand (log10)” value in data set [1] was found to be 1.63 ± 0.06. Further, the “normalized RNA/DNA level with ligand (log10)” value in data set [2] worked out at 1.77 ± 0.14.
Regarding GCUGUCACCGAGAAACUGUGAAGUAUAUCUUAAACCUGGGCACUUAAAAGAUAUAUGGAGUUAGUAGUGCAACCUGCUCGGUCUGAUGAGUCCAAGUCGGGACGAAACAGC [AAGUCG], the “normalized RNA/DNA level without ligand (log10)” value in data set [1] was 1.62 ± 0.031. For the same variant, the “normalized RNA/DNA level with ligand (log10)” value in data set [2] stood at 1.79 ± 0.089.
GCUGUCACCGAGAAACUGUGAAGUAUAUCUUAAACCUGGGCACUUAAAAGAUAUAUGGAGUUAGUAGUGCAACCUGCUCGGUCUGAUGAGUCCAAGUCUGGACGAAACAGC [AAGUCU]: in data set [1], the “normalized RNA/DNA level without ligand (log10)” value came out at 1.68 ± 0.058. Also, the “normalized RNA/DNA level with ligand (log10)” value in data set [2] was 1.8 ± 0.12.
In the case of GCUGUCACCGAGAAACUGUGAAGUAUAUCUUAAACCUGGGCACUUAAAAGAUAUAUGGAGUUAGUAGUGCAACCUGCUCGGUCUGAUGAGUCCGAGUCCGGACGAAACAGC [GAGUCC], the “normalized RNA/DNA level without ligand (log10)” value in data set [1] was 1.8 ± 0.043. Further, in data set [2], the “normalized RNA/DNA level with ligand (log10)” value came to 1.88 ± 0.064.
Take GCUGUCACCGAGAAACUGUGAAGUAUAUCUUAAACCUGGGCACUUAAAAGAUAUAUGGAGUUAGUAGUGCAACCUGCUCGGUCUGAUGAGUCCGAGUCAGGACGAAACAGC [GAGUCA]: the “normalized RNA/DNA level without ligand (log10)” value in data set [1] is 1.82 ± 0.021. In addition, in data set [2], the “normalized RNA/DNA level with ligand (log10)” value turned out to be 1.9 ± 0.085.
With GCUGUCACCGAGAAACUGUGAAGUAUAUCUUAAACCUGGGCACUUAAAAGAUAUAUGGAGUUAGUAGUGCAACCUGCUCGGUCUGAUGAGUCCGAGUCGGGACGAAACAGC [GAGUCG], the “normalized RNA/DNA level without ligand (log10)” value in data set [1] turned out to be 1.83 ± 0.031. In addition, in data set [2], the “normalized RNA/DNA level with ligand (log10)” value was found to be 1.88 ± 0.092.
GCUGUCACCGAGAAACUGUGAAGUAUAUCUUAAACCUGGGCACUUAAAAGAUAUAUGGAGUUAGUAGUGCAACCUGCUCGGUCUGAUGAGUCCGAGUCUGGACGAAACAGC [GAGUCU]: the “normalized RNA/DNA level without ligand (log10)” value in data set [1] amounted to 1.8 ± 0.07. In data set [2], the “normalized RNA/DNA level with ligand (log10)” value came out at 1.85 ± 0.076.
The corresponding values for GCUGUCACCGAGAAACUGUGAAGUAUAUCUUAAACCUGGGCACUUAAAAGAUAUAUGGAGUUAGUAGUGCAACCUGCUCGGUCUGAUGAGUCCUAGUACGGACGAAACAGC [UAGUAC] are 1.68 ± 0.037 and 1.8 ± 0.12.
For the variant GCUGUCACCGAGAAACUGUGAAGUAUAUCUUAAACCUGGGCACUUAAAAGAUAUAUGGAGUUAGUAGUGCAACCUGCUCGGUCUGAUGAGUCCUAGUAGGGACGAAACAGC [UAGUAG], in data set [1], the “normalized RNA/DNA level without ligand (log10)” value stood at 1.7 ± 0.036. Moreover, in data set [2], the “normalized RNA/DNA level with ligand (log10)” value came to 1.84 ± 0.1.
On to GCUGUCACCGAGAAACUGUGAAGUAUAUCUUAAACCUGGGCACUUAAAAGAUAUAUGGAGUUAGUAGUGCAACCUGCUCGGUCUGAUGAGUCCCAGUAGGGACGAAACAGC [CAGUAG], for which, in data set [1], the “normalized RNA/DNA level without ligand (log10)” value came out at 1.724 ± 0.013. Moreover, the “normalized RNA/DNA level with ligand (log10)” value in data set [2] turned out to be 1.83 ± 0.096.
On to GCUGUCACCGAGAAACUGUGAAGUAUAUCUUAAACCUGGGCACUUAAAAGAUAUAUGGAGUUAGUAGUGCAACCUGCUCGGUCUGAUGAGUCCAAGUAGGGACGAAACAGC [AAGUAG], for which the “normalized RNA/DNA level without ligand (log10)” value in data set [1] turned out to be 1.68 ± 0.024. In addition, the “normalized RNA/DNA level with ligand (log10)” value in data set [2] is 1.77 ± 0.12.
As to GCUGUCACCGAGAAACUGUGAAGUAUAUCUUAAACCUGGGCACUUAAAAGAUAUAUGGAGUUAGUAGUGCAACCUGCUCGGUCUGAUGAGUCCAAGUAUGGACGAAACAGC [AAGUAU], in data set [1], the “normalized RNA/DNA level without ligand (log10)” value stood at 1.62 ± 0.032. Also, the “normalized RNA/DNA level with ligand (log10)” value in data set [2] worked out at 1.8 ± 0.095.
With GCUGUCACCGAGAAACUGUGAAGUAUAUCUUAAACCUGGGCACUUAAAAGAUAUAUGGAGUUAGUAGUGCAACCUGCUCGGUCUGAUGAGUCCAAGUGAGGACGAAACAGC [AAGUGA], in data set [1], the “normalized RNA/DNA level without ligand (log10)” value worked out at 1.38 ± 0.19. Moreover, in data set [2], the “normalized RNA/DNA level with ligand (log10)” value is 1.5546 ± 0.00035.
For the variant GCUGUCACCGAGAAACUGUGAAGUAUAUCUUAAACCUGGGCACUUAAAAGAUAUAUGGAGUUAGUAGUGCAACCUGCUCGGUCUGAUGAGUCCAAGUGCGGACGAAACAGC [AAGUGC], the “normalized RNA/DNA level without ligand (log10)” value in data set [1] is 1.666 ± 0.0039. Besides, the “normalized RNA/DNA level with ligand (log10)” value in data set [2] turned out to be 1.82 ± 0.14.
As to GCUGUCACCGAGAAACUGUGAAGUAUAUCUUAAACCUGGGCACUUAAAAGAUAUAUGGAGUUAGUAGUGCAACCUGCUCGGUCUGAUGAGUCCUAGUCAGGACGAAACAGC [UAGUCA], the “normalized RNA/DNA level without ligand (log10)” value in data set [1] came to 1.768 ± 0.017. Besides, the “normalized RNA/DNA level with ligand (log10)” value in data set [2] turned out to be 1.91 ± 0.076.
As for GCUGUCACCGAGAAACUGUGAAGUAUAUCUUAAACCUGGGCACUUAAAAGAUAUAUGGAGUUAGUAGUGCAACCUGCUCGGUCUGAUGAGUCCUAGUCGGGACGAAACAGC [UAGUCG], the “normalized RNA/DNA level without ligand (log10)” value in data set [1] was found to be 1.8 ± 0.021. Moreover, the “normalized RNA/DNA level with ligand (log10)” value in data set [2] is 1.91 ± 0.14.
Consider GCUGUCACCGAGAAACUGUGAAGUAUAUCUUAAACCUGGGCACUUAAAAGAUAUAUGGAGUUAGUAGUGCAACCUGCUCGGUCUGAUGAGUCCUAGUCUGGACGAAACAGC [UAGUCU], for which the “normalized RNA/DNA level without ligand (log10)” value in data set [1] is 1.707 ± 0.015. Further, in data set [2], the “normalized RNA/DNA level with ligand (log10)” value was 1.84 ± 0.053.
Regarding GCUGUCACCGAGAAACUGUGAAGUAUAUCUUAAACCUGGGCACUUAAAAGAUAUAUGGAGUUAGUAGUGCAACCUGCUCGGUCUGAUGAGUCCGAGUACGGACGAAACAGC [GAGUAC], the “normalized RNA/DNA level without ligand (log10)” value in data set [1] came out at 1.8 ± 0.059. Besides, the “normalized RNA/DNA level with ligand (log10)” value in data set [2] worked out at 1.87 ± 0.11.
GCUGUCACCGAGAAACUGUGAAGUAUAUCUUAAACCUGGGCACUUAAAAGAUAUAUGGAGUUAGUAGUGCAACCUGCUCGGUCUGAUGAGUCCGAGUAUGGACGAAACAGC [GAGUAU]: the “normalized RNA/DNA level without ligand (log10)” value in data set [1] amounted to 1.79 ± 0.024. In data set [2], the “normalized RNA/DNA level with ligand (log10)” value worked out at 1.86 ± 0.099.
With GCUGUCACCGAGAAACUGUGAAGUAUAUCUUAAACCUGGGCACUUAAAAGAUAUAUGGAGUUAGUAGUGCAACCUGCUCGGUCUGAUGAGUCCCAGUCUGGACGAAACAGC [CAGUCU], the “normalized RNA/DNA level without ligand (log10)” value in data set [1] was 1.52 ± 0.048. The “normalized RNA/DNA level with ligand (log10)” value in data set [2] is 1.68 ± 0.12.
Take GCUGUCACCGAGAAACUGUGAAGUAUAUCUUAAACCUGGGCACUUAAAAGAUAUAUGGAGUUAGUAGUGCAACCUGCUCGGUCUGAUGAGUCCCAGUCGGGACGAAACAGC [CAGUCG]: the “normalized RNA/DNA level without ligand (log10)” value in data set [1] stood at 1.76 ± 0.067. Further, the “normalized RNA/DNA level with ligand (log10)” value in data set [2] turned out to be 1.9 ± 0.12.
With GCUGUCACCGAGAAACUGUGAAGUAUAUCUUAAACCUGGGCACUUAAAAGAUAUAUGGAGUUAGUAGUGCAACCUGCUCGGUCUGAUGAGUCCCAGUCAGGACGAAACAGC [CAGUCA], the “normalized RNA/DNA level without ligand (log10)” value in data set [1] stood at 1.41 ± 0.1. In addition, the “normalized RNA/DNA level with ligand (log10)” value in data set [2] amounted to 1.52 ± 0.13.
On to GCUGUCACCGAGAAACUGUGAAGUAUAUCUUAAACCUGGGCACUUAAAAGAUAUAUGGAGUUAGUAGUGCAACCUGCUCGGUCUGAUGAGUCCCAGUGCGGACGAAACAGC [CAGUGC], for which, in data set [1], the “normalized RNA/DNA level without ligand (log10)” value turned out to be 1.71 ± 0.05. Further, the “normalized RNA/DNA level with ligand (log10)” value in data set [2] came out at 1.81 ± 0.11.
As for GCUGUCACCGAGAAACUGUGAAGUAUAUCUUAAACCUGGGCACUUAAAAGAUAUAUGGAGUUAGUAGUGCAACCUGCUCGGUCUGAUGAGUCCCAGUGAGGACGAAACAGC [CAGUGA], the “normalized RNA/DNA level without ligand (log10)” value in data set [1] was determined as 1.52 ± 0.043. In addition, the “normalized RNA/DNA level with ligand (log10)” value in data set [2] is 1.7 ± 0.12.

The values above are taken from the supplement of paper PMC6757056.
